Measured values as given in patent US5747453.

Target: PTH receptor (rat) (UniProt P25961)
Sequence (P25961 27-591): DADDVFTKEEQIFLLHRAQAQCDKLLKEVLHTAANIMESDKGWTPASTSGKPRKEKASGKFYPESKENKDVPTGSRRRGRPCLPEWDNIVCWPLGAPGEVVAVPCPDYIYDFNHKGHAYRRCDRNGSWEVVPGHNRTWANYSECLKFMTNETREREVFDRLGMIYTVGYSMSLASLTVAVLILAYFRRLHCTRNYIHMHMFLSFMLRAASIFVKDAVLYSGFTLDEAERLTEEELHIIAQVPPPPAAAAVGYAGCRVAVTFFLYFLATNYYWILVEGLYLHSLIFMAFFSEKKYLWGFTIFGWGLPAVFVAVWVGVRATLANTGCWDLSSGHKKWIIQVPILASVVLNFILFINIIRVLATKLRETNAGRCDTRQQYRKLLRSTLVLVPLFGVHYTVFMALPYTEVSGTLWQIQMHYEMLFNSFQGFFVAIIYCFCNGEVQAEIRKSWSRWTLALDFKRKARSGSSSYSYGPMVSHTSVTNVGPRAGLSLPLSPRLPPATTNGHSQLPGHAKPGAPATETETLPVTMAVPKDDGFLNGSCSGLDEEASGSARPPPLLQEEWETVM

Chain of PTH analog 1 (1-35) (ligand) (peptide): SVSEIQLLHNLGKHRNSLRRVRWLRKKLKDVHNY

| Substance | cAMP concentration (adenylate cyclase stimulation) in UMR106 cells, scintillation proximity assay [nM] |
| --- | --- |
| PTH analog 1 (1-35) (ligand) | 0.9 |
| Synthetic PTH having the wild-type sequence (ligand) | 4.4 |
